This note sets out measurements from paper PMC4912631, “Structure of the exportin Xpo4 in complex with RanGTP and the hypusine-containing translation factor eIF5A” (Nature Communications, 2016).

First the molecules themselves.
B2: Xpo4 wild type (natural protein)
chain: not shown

Common to all, as to conditions: both partners purified
In assay [1] the target is B2. Nature of the assay: pull-down; export complexes formed with Xpo4, eIF5A (full-length or truncated) and ZZ-bdNEDD8-tagged RanGTP; immobilised via tagged Ran; eluted by bdNEDP1 protease; SDS-PAGE, Coomassie.
Another assay has as its target ZZ-bdNEDD8-tagged RanGTP ( (mammalian), UniProt P62826 5-180, Q69L). In words: pull-down; 1 μM Xpo4 wild type or mutants, 0.75 μM ZZ-bdNEDD8-tagged RanGTP, 1.25 μM hypusinated eIF5A, 100 mM NaCl buffer; retrieved via tagged Ran; eluted by bdNEDP1 protease; SDS-PAGE, Coomassie.
Assay [2] deals with RanQ69L (aa 5–180), GTP-bound, untagged ( (mammalian), UniProt P62826 5-180, Q69L). In words: SEC; complexes of Xpo4 variants, RanGTP and a 1.3-molar excess of hypusine-containing eIF5A, retrieved on anti-ZZ beads via tagged RanGTP, eluted by bdSENP1, then Superdex 200 16/60 in 15 mM Tris/HCl pH 7.7, 18 mM NaCl, 2 mM Mg(OAc)2, 2 mM DTT; peak fractions on SDS-PAGE.
Assay [3] has as its target B2. Described as above.
In another assay the target is T1, Xpo4 ΔLoopN&C ( (mammalian), UniProt Q9ESJ0 1-1151, Δ241–260 | Δ931–948).
T1 construct: Xpo4 (exportin 4), mammalian, with loops 241-260 and 931-948 deleted; 1,113 residues printed; Crystallised form; 1,052 of 1,113 residues are modelled in PDB 5DLQ; also called ΔLoopN&C Xpo4 variant; Xpo4 loop deletion mutant; source: E. coli Top10 F', purified (Ni(II) chelate, bdSENP1 elution, Superdex 200, Mono Q); selenomethionine form from BL21; not shown: His14, N-terminal, cleaved; bdSUMO, …
T1 sequence (Q9ESJ0 other isoform, or with tags, fused parts or gaps Δ241–260 | Δ931–948 | Δ241–260 | Δ931–948 | mutant): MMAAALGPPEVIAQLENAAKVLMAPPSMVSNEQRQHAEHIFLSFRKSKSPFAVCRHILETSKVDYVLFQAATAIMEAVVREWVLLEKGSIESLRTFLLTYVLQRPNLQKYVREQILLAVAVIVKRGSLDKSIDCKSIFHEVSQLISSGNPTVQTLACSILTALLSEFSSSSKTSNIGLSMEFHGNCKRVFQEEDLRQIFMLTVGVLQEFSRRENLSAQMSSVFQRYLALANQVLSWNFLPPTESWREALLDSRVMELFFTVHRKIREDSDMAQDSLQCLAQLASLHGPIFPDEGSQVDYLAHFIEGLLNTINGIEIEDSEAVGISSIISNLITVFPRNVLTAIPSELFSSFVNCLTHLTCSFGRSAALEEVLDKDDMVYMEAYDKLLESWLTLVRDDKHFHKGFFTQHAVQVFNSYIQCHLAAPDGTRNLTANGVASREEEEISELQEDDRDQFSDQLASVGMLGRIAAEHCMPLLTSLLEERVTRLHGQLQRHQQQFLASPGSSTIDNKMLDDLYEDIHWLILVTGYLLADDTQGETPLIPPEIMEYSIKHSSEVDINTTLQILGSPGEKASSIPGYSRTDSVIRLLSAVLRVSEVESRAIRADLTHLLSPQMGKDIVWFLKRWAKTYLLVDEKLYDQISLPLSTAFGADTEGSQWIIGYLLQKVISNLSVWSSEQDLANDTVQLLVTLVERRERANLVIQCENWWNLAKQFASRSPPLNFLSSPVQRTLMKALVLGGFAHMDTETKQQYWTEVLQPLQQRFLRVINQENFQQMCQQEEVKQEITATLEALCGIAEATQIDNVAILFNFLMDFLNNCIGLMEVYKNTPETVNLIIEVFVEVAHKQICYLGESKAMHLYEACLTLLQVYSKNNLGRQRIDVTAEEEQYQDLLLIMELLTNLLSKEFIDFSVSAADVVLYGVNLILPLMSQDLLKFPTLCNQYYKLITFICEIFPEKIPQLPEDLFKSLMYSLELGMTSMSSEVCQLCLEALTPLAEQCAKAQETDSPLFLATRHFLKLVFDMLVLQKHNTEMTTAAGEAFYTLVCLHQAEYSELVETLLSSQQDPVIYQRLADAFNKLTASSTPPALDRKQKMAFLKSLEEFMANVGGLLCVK
Described as above.

Xpo4 wild type, sequence (Q9ESJ0 whole entry, the tested form may be a part): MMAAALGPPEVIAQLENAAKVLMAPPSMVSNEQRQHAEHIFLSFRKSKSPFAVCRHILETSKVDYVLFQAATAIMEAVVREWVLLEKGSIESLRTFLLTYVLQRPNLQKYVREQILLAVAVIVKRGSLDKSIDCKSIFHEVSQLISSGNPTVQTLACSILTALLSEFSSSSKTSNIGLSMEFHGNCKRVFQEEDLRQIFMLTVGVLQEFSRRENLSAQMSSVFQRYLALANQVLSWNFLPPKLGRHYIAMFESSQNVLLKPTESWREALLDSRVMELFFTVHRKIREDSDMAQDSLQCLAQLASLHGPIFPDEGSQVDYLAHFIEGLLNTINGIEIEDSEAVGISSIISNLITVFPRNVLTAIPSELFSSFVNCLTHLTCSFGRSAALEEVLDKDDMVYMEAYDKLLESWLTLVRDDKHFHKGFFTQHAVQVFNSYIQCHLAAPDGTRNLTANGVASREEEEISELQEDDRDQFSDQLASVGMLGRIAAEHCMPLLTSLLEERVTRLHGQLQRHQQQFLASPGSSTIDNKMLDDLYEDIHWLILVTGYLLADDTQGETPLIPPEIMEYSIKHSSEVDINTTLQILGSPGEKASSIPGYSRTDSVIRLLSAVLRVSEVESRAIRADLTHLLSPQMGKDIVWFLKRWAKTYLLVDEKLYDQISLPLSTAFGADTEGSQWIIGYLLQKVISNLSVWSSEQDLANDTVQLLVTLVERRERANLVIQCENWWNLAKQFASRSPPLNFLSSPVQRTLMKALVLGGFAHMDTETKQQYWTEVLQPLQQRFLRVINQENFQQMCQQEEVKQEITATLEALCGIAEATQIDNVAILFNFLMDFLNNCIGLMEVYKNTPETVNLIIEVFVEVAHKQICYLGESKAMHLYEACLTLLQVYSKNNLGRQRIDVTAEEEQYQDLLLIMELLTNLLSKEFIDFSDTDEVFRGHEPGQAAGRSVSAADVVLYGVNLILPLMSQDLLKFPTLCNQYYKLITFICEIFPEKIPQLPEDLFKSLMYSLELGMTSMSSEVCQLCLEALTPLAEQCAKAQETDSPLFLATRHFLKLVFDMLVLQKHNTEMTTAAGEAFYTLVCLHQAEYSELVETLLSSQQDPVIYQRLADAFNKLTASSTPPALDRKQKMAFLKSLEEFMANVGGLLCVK

B1: eIF5A, full-length, hypusinated (natural protein)
chain: not shown
modifications: hypusine (N-ɛ-(4-amino-2-hydroxybutyl)-lysine) at 50
notes: eIF5A, mammalian; lysine 50 in human numbering carries the hypusine; In the nuclear export assay this protein carried an Alexa568 label; also called eIF5A(Hpu); hypusinated eIF5A; source: E. coli NEB Express, purified; hypusinated in vitro by recombinant deoxyhypusine synthase and deoxyhypusine hydroxylase; eluted from anti-ZZ matrix by bdSENP1; cation exchange; not shown: His14, N-terminal, …
For the molecule B1, the binding result with Xpo4 wild type [1] is listed as “binds”.
Take B2: the binding result (with ZZ-bdNEDD8-tagged RanGTP; in assay [2]) was “binds” in each case.

B3: Xpo4 S631A (natural protein)
chain: not shown
Turning to B3, in the assay with ZZ-bdNEDD8-tagged RanGTP, the binding result was “binds”.

B4: Xpo4 E537Q (natural protein)
chain: not shown
Take B4: in the assay with ZZ-bdNEDD8-tagged RanGTP, the binding result is given as “binds”.

B5: Xpo4 D470N (natural protein)
chain: not shown
Consider B5, for which the binding result with ZZ-bdNEDD8-tagged RanGTP is “binds”.

B6: eIF5A truncated (14 N-terminal residues deleted), hypusinated (domain or fragment)
chain: not shown
modifications: hypusine (N-ɛ-(4-amino-2-hydroxybutyl)-lysine) at 50
For the molecule B6, the binding result with Xpo4 wild type [3] and with Xpo4 ΔLoopN&C was “binds” throughout.
